Measurements as given in paper PMC7440162 (Cell, 2020).
One block for each binder: values may come before it.

Key:
Test in all cases: SPR
PRTG ECD-Fc = target: T1, PRTG ECD-Fc (human, UniProt Q2VWP7 36-949)
T1 sequence: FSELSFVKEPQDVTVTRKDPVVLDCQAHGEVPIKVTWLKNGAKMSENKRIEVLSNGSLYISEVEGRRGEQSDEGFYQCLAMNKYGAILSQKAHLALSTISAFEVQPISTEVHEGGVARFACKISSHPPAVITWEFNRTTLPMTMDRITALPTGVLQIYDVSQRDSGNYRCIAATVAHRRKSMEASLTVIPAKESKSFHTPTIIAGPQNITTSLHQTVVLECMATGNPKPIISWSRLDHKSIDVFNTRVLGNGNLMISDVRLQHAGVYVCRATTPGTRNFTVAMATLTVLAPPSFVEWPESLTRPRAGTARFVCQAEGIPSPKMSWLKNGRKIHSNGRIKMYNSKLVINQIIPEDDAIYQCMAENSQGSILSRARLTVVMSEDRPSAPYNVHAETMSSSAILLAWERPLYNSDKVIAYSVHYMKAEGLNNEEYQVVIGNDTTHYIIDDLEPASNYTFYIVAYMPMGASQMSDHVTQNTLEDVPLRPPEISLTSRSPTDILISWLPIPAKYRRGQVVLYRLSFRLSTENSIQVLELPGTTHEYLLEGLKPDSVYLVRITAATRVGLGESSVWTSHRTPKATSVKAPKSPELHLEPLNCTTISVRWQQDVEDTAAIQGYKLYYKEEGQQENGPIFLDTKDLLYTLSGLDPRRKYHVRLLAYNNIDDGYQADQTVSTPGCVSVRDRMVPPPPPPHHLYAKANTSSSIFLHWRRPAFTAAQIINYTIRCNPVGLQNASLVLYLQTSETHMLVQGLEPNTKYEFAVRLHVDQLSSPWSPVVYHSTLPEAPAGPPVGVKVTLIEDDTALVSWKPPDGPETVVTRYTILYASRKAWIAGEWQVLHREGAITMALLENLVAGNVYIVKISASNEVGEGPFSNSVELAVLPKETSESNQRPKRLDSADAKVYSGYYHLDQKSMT

PTPRS ECD-Fc = target: T2, PTPRS ECD-Fc (human, UniProt Q13332 30-1282)
T2 sequence: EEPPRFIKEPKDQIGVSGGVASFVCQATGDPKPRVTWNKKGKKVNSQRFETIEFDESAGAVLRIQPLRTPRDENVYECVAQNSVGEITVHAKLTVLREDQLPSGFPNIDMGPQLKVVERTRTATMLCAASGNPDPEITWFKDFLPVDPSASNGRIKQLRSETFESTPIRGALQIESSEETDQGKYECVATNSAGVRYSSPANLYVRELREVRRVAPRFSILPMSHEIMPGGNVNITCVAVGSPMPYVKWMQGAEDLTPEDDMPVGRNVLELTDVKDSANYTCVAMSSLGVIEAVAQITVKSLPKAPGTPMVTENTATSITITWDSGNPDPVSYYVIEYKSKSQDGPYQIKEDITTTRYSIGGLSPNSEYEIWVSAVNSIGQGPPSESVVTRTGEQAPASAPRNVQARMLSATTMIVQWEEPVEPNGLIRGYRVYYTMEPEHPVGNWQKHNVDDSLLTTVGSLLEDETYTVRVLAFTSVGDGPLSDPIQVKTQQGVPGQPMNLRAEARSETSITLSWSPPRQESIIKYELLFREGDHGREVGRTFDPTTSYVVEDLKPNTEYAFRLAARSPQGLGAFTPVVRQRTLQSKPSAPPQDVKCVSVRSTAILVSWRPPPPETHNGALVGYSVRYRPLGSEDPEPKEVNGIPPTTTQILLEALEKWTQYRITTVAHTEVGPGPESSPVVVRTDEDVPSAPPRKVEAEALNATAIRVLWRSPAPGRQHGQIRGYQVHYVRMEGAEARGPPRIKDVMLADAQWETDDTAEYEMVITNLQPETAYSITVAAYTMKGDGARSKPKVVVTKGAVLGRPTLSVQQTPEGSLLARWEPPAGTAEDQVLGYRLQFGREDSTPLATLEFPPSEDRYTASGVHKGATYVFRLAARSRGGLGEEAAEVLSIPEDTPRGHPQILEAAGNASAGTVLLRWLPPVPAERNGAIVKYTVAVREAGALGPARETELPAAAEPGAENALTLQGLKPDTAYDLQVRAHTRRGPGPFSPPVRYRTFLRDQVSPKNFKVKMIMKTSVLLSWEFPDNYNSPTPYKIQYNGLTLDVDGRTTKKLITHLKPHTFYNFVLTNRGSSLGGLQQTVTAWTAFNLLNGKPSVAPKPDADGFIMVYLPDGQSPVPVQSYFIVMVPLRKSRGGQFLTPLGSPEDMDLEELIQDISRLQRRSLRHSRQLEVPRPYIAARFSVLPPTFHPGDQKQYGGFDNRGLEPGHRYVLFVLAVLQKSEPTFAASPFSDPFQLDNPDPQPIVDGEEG

human ISLR2 ECD-Fc = target: T3, human ISLR2 ECD-Fc (human, UniProt Q6UXK2 19-589, biotin on the AviTag (as SPR ligand))
T3 sequence: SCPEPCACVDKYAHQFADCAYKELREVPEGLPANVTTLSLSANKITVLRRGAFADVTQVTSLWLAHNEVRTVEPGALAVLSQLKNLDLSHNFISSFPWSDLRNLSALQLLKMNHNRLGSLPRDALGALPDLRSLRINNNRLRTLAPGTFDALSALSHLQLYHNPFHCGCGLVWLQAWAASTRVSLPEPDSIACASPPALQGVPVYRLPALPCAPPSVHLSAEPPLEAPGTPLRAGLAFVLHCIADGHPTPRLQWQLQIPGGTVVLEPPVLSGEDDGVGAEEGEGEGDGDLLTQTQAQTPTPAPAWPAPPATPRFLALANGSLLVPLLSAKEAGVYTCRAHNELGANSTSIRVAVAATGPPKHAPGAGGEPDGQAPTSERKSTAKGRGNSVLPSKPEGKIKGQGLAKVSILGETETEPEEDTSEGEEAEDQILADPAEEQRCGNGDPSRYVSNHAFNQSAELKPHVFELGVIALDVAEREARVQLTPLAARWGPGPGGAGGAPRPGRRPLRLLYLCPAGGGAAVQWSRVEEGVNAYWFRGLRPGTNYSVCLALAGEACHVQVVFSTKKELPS

- binding result (PRTG ECD-Fc): binds
B1: LTF-Fc (Fc fusion)
chain: GRRRSVQWCAVSQPEATKCFQWQRNMRKVRGPPVSCIKRDSPIQCIQAIAENRADAVTLDGGFIYEAGLAPYKLRPVAAEVYGTERQPRTHYYAVAVVKKGGSFQLNELQGLKSCHTGLRRTAGWNVPIGTLRPFLNWTGPPEPIEAAVARFFSASCVPGADKGQFPNLCRLCAGTGENKCAFSSQEPYFSYSGAFKCLRDGAGDVAFIRESTVFEDLSDEAERDEYELLCPDNTRKPVDKFKDCHLARVPSHAVVARSVNGKEDAIWNLLRQAQEKFGKDKSPKFQLFGSPSGQKDLLFKDSAIGFSRVPPRIDSGLYLGSGYFTAIQNLRKSEEEVAARRARVVWCAVGEQELRKCNQWSGLSEGSVTCSSASTTEDCIALVLKGEADAMSLDGGYVYTAGKCGLVPVLAENYKSQQSSDPDPNCVDRPVEGYLAVAVVRRSDTSLTWNSVKGKKSCHTAVDRTAGWNIPMGLLFNQTGSCKFDEYFSQSCAPGSDPRSNLCALCIGDEQGENKCVPNSNERYYGYTGAFRCLAENAGDVAFVKDVTVLQNTDGNNNEAWAKDLKLADFALLCLDGKRKPVTEARSCHLAMAPNHAVVSRMDKVERLKQVLLHQQAKFGRNGSDCPDKFCLFQSETKNLLFNDNTECLARLHGKTTYEKYLGPQYVAGITNLKKCSTSPLLEACEFLRK
modifications: biotin on the AviTag (as SPR ligand)

- binding result (PRTG ECD-Fc): binds
B2: ICAM5 ECD-Fc (Fc fusion)
chain: EPFWADLQPRVAFVERGGSLWLNCSTNCPRPERGGLETSLRRNGTQRGLRWLARQLVDIREPETQPVCFFRCARRTLQARGLIRTFQRPDRVELMPLPPWQPVGENFTLSCRVPGAGPRASLTLTLLRGAQELIRRSFAGEPPRARGAVLTATVLARREDHGANFSCRAELDLRPHGLGLFENSSAPRELRTFSLSPDAPRLAAPRLLEVGSERPVSCTLDGLFPASEARVYLALGDQNLSPDVTLEGDAFVATATATASAEQEGARQLVCNVTLGGENRETRENVTIYSFPAPLLTLSEPSVSEGQMVTVTCAAGAQALVTLEGVPAAVPGQPAQLQLNATENDDRRSFFCDATLDVDGETLIKNRSAELRVLYAPRLDDSDCPRSWTWPEGPEQTLRCEARGNPEPSVHCARSDGGAVLALGLLGPVTRALSGTYRCKAANDQGEAVKDVTLTVEYAPALDSVGCPERITWLEGTEASLSCVAHGVPPPDVICVRSGELGAVIEGLLRVAREHAGTYRCEATNPRGSAAKNVAVTVEYGPRFEEPSCPSNWTWVEGSGRLFSCEVDGKPQPSVKCVGSGGATEGVLLPLAPPDPSPRAPRIPRVLAPGIYVCNATNRHGSVAKTVVVSAESPPEMDESTCPSHQTWLEGAEASALACAARGRPSPGVRCSREGIPWPEQQRVSREDAGTYHCVATNAHGTDSRTVTVGVEYRPVVAELAASPPGGVRPGGNFTLTCRAEAWPPAQISWRAPPGALNIGLSSNNSTLSVAGAMGSHGGEYECAATNAHGRHARRITVRVAGPW
modifications: biotin on the AviTag (as SPR ligand)

- binding result (PTPRS ECD-Fc): binds
B3: IL1RAPL1 ECD-Fc (Fc fusion)
chain: LKVVTKRGSADGCTDWSIDIKKYQVLVGEPVRIKCALFYGYIRTNYSLAQSAGLSLMWYKSSGPGDFEEPIAFDGSRMSKEEDSIWFRPTLLQDSGLYACVIRNSTYCMKVSISLTVGENDTGLCYNSKMKYFEKAELSKSKEISCRDIEDFLLPTREPEILWYKECRTKTWRPSIVFKRDTLLIREVREDDIGNYTCELKYGGFVVRRTTELTVTAPLTDKPPKLLYPMESKLTIQETQLGDSANLTCRAFFGYSGDVSPLIYWMKGEKFIEDLDENRVWESDIRILKEHLGEQEVSISLIVDSVEEGDLGNYSCYVENGNGRRHASVLLHKRELMYT
modifications: biotin on the AviTag (as SPR ligand)

- binding result (human ISLR2 ECD-Fc): binds
- binding result (PRTG ECD-Fc): binds
B4: WFIKKN2-Fc (Fc fusion)
chain: LPPIRYSHAGICPNDMNPNLWVDAQSTCRRECETDQECETYEKCCPNVCGTKSCVAARYMDVKGKKGPVGMPKEATCDHFMCLQQGSECDIWDGQPVCKCKDRCEKEPSFTCASDGLTYYNRCYMDAEACSKGITLAVVTCRYHFTWPNTSPPPPETTMHPTTASPETPELDMAAPALLNNPVHQSVTMGETVSFLCDVVGRPRPEITWEKQLEDRENVVMRPNHVRGNVVVTNIAQLVIYNAQLQDAGIYTCTARNVAGVLRADFPLSVVRGHQAAATSESSPNGTAFPAAECLKPPDSEDCGEEQTRWHFDAQANNCLTFTFGHCHRNLNHFETYEACMLACMSGPLAACSLPALQGPCKAYAPRWAYNSQTGQCQSFVYGGCEGNGNNFESREACEESCPFPRGNQRCRACKPRQKLVTSFCRSDFVILGRVSELTEEPDSGRALVTVDEVLKDEKMGLKFLGQEPLEVTLLHVDWACPCPNVTVSEMPLIIMGEVDGGMAMLRPDSFVGASSARRVRKLREVMHKKTCDVLKEFLGLH
modifications: biotin on the AviTag (as SPR ligand)
